In patent US20260116996A1 (REGENTS OF THE UNIVERSITY OF MINNESOTA, published 2026):

What was measured:
human serpinB11 = molecular target: T1, human serpinB11 (human, UniProt Q96P15 1-392); test: Luminex bead assay, beads coated with human serpinB11, background (Gfp and Scgn beads) subtracted
T1 construct: Luminex antigen captured from a 293 cell lysate; not shown: V5-His tag of the pcDNA3.1 Directional V5-His-TOPO vector
T1 sequence (looked up): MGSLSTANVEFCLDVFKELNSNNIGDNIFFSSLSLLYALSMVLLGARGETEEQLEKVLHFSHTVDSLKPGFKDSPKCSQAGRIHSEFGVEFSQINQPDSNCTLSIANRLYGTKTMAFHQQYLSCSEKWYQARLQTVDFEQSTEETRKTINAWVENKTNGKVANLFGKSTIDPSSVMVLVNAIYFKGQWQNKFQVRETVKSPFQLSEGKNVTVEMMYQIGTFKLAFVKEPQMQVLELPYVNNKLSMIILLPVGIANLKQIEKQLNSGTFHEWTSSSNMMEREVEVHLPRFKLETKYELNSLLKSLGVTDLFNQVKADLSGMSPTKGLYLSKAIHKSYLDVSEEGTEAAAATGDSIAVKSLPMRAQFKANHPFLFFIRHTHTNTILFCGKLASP
Method: (§1) The latter was determined as the average antibody binding to Luminex beads coated with Gfp and Scgn control antigens. Similar data were obtained for antigen binding of Fab fragments of these antibodies (data not shown).
(§2) Luminex assay. Luminex-based technology was used to measure serpinB13 AA in human samples. Initially, the Luminex beads were precoated with serpinB13, Gfp and Scgn, using precleared lysates of 293 cells that had been transfected with individual cDNAs. Biotinylated mouse anti-human K and 2 chain mAbs (BD Biosciences) (dilution 1:300) and streptavidin (Invitrogen) (dilution 1:200) were used as secondary reagents to measure human serum binding activity to individual antigens. The data were expressed as fluorescence intensity (F.I.) due to serum binding activity in the presence of beads precoated with serpinB13 and after subtracting the average F.I. due to serum binding activity in the presence of beads precoated with control proteins, Gfp and Scgn (e.g. F.I.^B13-[F.I.^GFP+F.I.^Segn]/2). The samples were evaluated based on the level of F.I. and the degree of inhibition of binding to serpin-B13 coated beads with soluble serpinB13 (2.5 μg/mL), compared with the bovine serum albumin (BSA). […] All samples were run blind on three independent occasions. Subjects with serum samples that produced a positive results three times were considered positive. Subjects with serum samples that produced a negative result on at least one occasion were considered negative.
(§3) To determine whether anti-serpin activity is specific, binding of three human recombinant antibodies to serpinB13 was examined for potential cross-reactivity with other clade B serpins. Binding to the beads conjugated with Gfp and Scgn was used to subtract the background and the assay was developed using the same reagents as those described above for measuring serpinB13 AA in serum samples.

human serpinB8 = molecular target: T2, human serpinB8 (human, UniProt P50452 1-374); test: Luminex bead assay, beads coated with human serpinB8, background (Gfp and Scgn beads) subtracted
T2 construct: Luminex antigen captured from a 293 cell lysate; not shown: V5-His tag of the pcDNA3.1 Directional V5-His-TOPO vector
T2 sequence (looked up): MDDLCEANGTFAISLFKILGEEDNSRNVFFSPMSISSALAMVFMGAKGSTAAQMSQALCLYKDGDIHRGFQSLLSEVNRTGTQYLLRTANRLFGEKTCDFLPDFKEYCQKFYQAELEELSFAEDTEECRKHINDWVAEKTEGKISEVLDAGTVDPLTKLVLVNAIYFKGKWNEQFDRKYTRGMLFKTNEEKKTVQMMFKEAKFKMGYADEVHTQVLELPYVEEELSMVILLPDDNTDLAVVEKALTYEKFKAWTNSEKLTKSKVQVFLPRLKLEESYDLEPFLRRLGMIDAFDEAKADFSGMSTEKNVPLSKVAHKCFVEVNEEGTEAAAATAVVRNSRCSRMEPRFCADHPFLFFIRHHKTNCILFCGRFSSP
Method: as §1, §2, §3

human serpinB7 = molecular target: T3, human serpinB7 (human, UniProt O75635 1-380); test: Luminex bead assay, beads coated with human serpinB7, background (Gfp and Scgn beads) subtracted
T3 construct: Luminex antigen captured from a 293 cell lysate; not shown: V5-His tag of the pcDNA3.1 Directional V5-His-TOPO vector
T3 sequence (looked up): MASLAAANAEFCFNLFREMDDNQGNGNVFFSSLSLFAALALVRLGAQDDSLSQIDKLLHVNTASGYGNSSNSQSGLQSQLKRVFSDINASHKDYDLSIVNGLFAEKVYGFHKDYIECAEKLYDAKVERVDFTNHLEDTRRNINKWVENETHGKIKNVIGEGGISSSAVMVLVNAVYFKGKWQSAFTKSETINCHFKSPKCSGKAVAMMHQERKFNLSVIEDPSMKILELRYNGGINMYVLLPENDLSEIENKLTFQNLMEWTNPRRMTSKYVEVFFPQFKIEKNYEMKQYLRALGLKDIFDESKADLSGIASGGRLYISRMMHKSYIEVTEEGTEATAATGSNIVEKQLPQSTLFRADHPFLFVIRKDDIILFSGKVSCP
Method: as §1, §2, §3

human serpinB12 = molecular target: T4, human serpinB12 (human, UniProt Q96P63 1-405); test: Luminex bead assay, beads coated with human serpinB12, background (Gfp and Scgn beads) subtracted
T4 construct: Luminex antigen captured from a 293 cell lysate; not shown: V5-His tag of the pcDNA3.1 Directional V5-His-TOPO vector
T4 sequence (looked up): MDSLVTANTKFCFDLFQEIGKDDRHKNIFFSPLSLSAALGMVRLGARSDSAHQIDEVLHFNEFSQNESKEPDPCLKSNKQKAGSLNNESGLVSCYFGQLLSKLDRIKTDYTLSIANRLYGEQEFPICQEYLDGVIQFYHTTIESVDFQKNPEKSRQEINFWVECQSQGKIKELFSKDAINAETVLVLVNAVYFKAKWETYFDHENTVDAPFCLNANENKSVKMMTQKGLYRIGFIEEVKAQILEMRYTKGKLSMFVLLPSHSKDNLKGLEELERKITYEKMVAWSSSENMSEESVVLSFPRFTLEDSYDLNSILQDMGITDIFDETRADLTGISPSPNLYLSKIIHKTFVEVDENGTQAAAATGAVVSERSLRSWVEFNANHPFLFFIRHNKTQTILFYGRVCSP
Method: as §1, §2, §3

human serpinB1 = molecular target: T5, human serpinB1 (human, UniProt P30740 1-379); test: Luminex bead assay, beads coated with human serpinB1, background (Gfp and Scgn beads) subtracted
T5 construct: Luminex antigen captured from a 293 cell lysate; not shown: V5-His tag of the pcDNA3.1 Directional V5-His-TOPO vector
T5 sequence (looked up): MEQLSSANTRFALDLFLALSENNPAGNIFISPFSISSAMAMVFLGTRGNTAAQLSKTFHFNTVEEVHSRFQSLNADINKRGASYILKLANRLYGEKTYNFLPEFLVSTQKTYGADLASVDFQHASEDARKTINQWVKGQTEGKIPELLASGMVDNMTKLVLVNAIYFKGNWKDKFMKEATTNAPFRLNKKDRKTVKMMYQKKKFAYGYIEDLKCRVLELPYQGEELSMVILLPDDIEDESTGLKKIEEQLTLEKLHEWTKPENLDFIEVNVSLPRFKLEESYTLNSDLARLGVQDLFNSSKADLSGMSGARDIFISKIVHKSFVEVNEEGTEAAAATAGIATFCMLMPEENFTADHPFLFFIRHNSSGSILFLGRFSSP
Method: as §1, §2, §3

Measured: binding result

B1: recombinant fully human anti-serpinB13 antibody Clone 3 (antibody, human IgG1, kappa, V domains shown)
VH: QVQLQQWGAGLLKPSETLSLTCAVYGGSFSGYYWSWIRQPPGKGLEWIGEINHSGSTNYNPSLKSRVTISVDTSKNQFSLKLSSVTAADTAVYYCARRYCSGGSCYLVGTGSELDYWGQGTLVTVSS
VL: DIQMTQSPSTLSASVGDRVTITCRASQSISSWLAWYQQKPGKAPKLLIYKASSLEIGVPSRFSGSGYGTEFTLTISSLQPDDFATYYCLQYSTHSTFGQGTRVEIKR
notes: also called mAb3; CLONE3-H(m1) / CLONE3-L(m1)
no binding (tested: 1.0 µg/mL): all assays above

B2: recombinant fully human anti-serpinB13 antibody Clone 2 (antibody, human IgG1, kappa, V domains shown)
VH: QMQLVQSGGGVVRPGGSLRLSCAASGFTFDDYGMSWVRQAPGKGLEWVSGINWNGGSTGYADSVKGRFTISRDNAKNSLYLQMNSLRAEDTALYYCARESSMTTVTTYLLREVGVGLDFDYWGQGTLVTVSS
VL: ETTLTQSPGTLSLSPGERATLSCRASQTVSGSYLAWYQQKPGQPPRLLIYGASSRATGIPDRFSGSGSGTDFTLTISRLEPEDFAVYYCQDYGSSRTFGQGTKVELKR
notes: also called mAb2; CLONE2-H(m1) / CLONE2-L(m1)
no binding (tested: 1.0 µg/mL): all assays above

B3: recombinant fully human anti-serpinB13 antibody Clone 1 (antibody, human IgG1, kappa, V domains shown)
VH: QVQLQESGGGVVQPGRSLRLSCAASGFTFSSYGMHWVRQAPGKGLEWVAVISYDGSNKYYADSVKGRFTISRDNSKNTLYLQMNSLRAEDTAVYYCARDLGAVIAVAGTSTPYNWFDPWGQGTLVTVSS
VL: DVVMTQSPLSLPVTPGEPASISCRSRQSLLHSNGHNYLGWYLQKPGQSPQLLIYLASIRASGIPDRFSGSGSGTDFTLKISRVEAEDVGVYYCMQALQTPYTFGQGTKLEIKR
notes: also called mAb1; mAbs1
no binding (tested: 1.0 µg/mL): all assays above
